In patent publication US20200062829A1 (PANASONIC INTELLECTUAL PROPERTY MANAGEMENT, published 2020):

Target: T1, VLP noro antigen derived from the norovirus GII/4, composed by associating 90 dimers of VP1 each including … (norovirus GII/4, UniProt P54635 1-539)
T1 construct: Virus-like particle of 90 VP1 dimers (180 copies); also called solid phase VLP
T1 chain: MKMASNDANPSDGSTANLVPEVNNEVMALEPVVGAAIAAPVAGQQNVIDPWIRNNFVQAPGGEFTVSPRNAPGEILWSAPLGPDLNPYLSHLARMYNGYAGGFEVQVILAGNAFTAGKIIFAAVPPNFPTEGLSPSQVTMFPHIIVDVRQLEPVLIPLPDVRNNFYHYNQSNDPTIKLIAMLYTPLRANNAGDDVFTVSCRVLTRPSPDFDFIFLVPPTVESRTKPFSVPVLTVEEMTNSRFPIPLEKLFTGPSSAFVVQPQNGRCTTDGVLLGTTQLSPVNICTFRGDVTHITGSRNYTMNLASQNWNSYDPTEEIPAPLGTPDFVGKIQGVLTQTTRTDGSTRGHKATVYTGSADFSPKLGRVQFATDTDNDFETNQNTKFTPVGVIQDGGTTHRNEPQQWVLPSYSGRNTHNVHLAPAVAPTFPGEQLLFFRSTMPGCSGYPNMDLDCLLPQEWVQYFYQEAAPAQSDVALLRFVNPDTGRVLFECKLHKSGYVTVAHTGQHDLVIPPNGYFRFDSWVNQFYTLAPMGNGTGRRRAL
Test: SPR (T200, CM3), VLP noro antigen immobilised, antibody as analyte

B1: Antibody bound to the protein represented by SEQ ID NO: 100 (structural domain SEQ ID NO: 38 - linker - protein molecule SEQ ID NO: 44) (VHH)
chain: QVQLVESGGGVVQTGGSLRLSCAASGSTFSIGAMGWYRQAPGKQRELVATVNRASRTIYADSVRGRFTISRDNAKNLVYLQMNNLKPEDTAVYYCNVIATSASGRGVTSTSWGQGSQVTVSSGGGGSGGGASGGGGSQVQLVESGGGLVQAGKSLRLSCTASGSIPSIGVMGWHRQAPGKQRELVATISQGGHINYFESVKGRFTISRDNAKNTVYLQMNSLKPEDTGVYYCNAFWLPLRLNDYWGQGTQVTVSSEPKTPKPQSASAA
notes: tags not described
- Kd: 2.38 nM
- koff: 0.00698 s⁻¹
- kon: 2.93e+06 M⁻¹ s⁻¹

B2: Antibody bound to the protein represented by SEQ ID NO: 102 (N to C: protein molecule SEQ ID NO: 44 - linker - structural domain SEQ ID NO: 39) (VHH)
chain: QVQLVESGGGLVQAGKSLRLSCTASGSIPSIGVMGWHRQAPGKQRELVATISQGGHINYFESVKGRFTISRDNAKNTVYLQMNSLKPEDTGVYYCNAFWLPLRLNDYWGQGTQVTVSSGGGGSGGGASGGGGSQLQLVESGGGLVQAGGSLRLSCVASGFPFASSAMAWFRQAPGKEREFVASISYRGITTYYAQPVKGRFTMSRDNAKNTVYLQMNSLKPEDTAVYYCYAKSIWGNAYWGQGTQVTVSPEPKTPKPQSASAA
notes: One chain; Made in E. coli; tags not described
- Kd: 10.2 nM
- koff: 0.0109 s⁻¹
- kon: 1.07e+06 M⁻¹ s⁻¹

B3: VHH antibody consisting of the amino acid sequence represented by SEQ ID NO: 67 (monomer antibody; includes the structural domain SEQ ID NO: 39) (VHH)
VHH: QLQLVESGGGLVQAGGSLRLSCVASGFPFASSAMAWFRQAPGKEREFVASISYRGITTYYAQPVKGRFTMSRDNAKNTVYLQMNSLKPEDTAVYYCYAKSIWGNAYWGQGTQVTVSP
notes: also called Monomer Antibody 67
- koff: 0.0194 s⁻¹
